# Laboratory results as given in IntAct's records for PubMed 15447654.
# B1: Adagio protein 1 (Arabidopsis thaliana (Mouse-ear cress)), Q94BT6 (parent)
# chain: MEWDSGSDLSADDASSLADDEEGGLFPGGGPIPYPVGNLLHTAPCGFVVTDAVEPDQPIIYVNTVFEMVTGYRAEEVLGGNCRFLQCRGPFAKRRHPLVDSMVVSEIRKCIDEGIEFQGELLNFRKDGSPLMNRLRLTPIYGDDDTITHIIGIQFFIETDIDLGPVLGSSTKEKSIDGIYSALAAGERNVSRGMCGLFQLSDEVVSMKILSRLTPRDVASVSSVCRRLYVLTKNEDLWRRVCQNAWGSETTRVLETVPGAKRLGWGRLARELTTLEAAAWRKLSVGGSVEPSRCNFSACAVGNRVVLFGGEGVNMQPMNDTFVLDLNSDYPEWQHVKVSSPPPGRWGHTLTCVNGSNLVVFGGCGQQGLLNDVFVLNLDAKPPTWREISGLAPPLPRSWHSSCTLDGTKLIVSGGCADSGVLLSDTFLLDLSIEKPVWREIPAAWTPPSRLGHTLSVYGGRKILMFGGLAKSGPLKFRSSDVFTMDLSEEEPCWRCVTGSGMPGAGNPGGVAPPPRLDHVAVNLPGGRILIFGGSVAGLHSASQLYLLDPTEDKPTWRILNIPGRPPRFAWGHGTCVVGGTRAIVLGGQTGEEWMLSELHELSLASYLT
# Variants of: B1
# Settings: with skp1a_arath SKP1A
row,effect of a mutation on the interaction,Variant
1,decreasing interaction,L200A
2,decreasing interaction,L213A
